Experiment [1] addresses T1, monkey SEMA4D, full length, on CHO-K1 cells (CHO-K1 cSEMA4D) (monkey).
T1 construct: whole, on cells; also called monkey SEMA4D recombinant cells
Nature of the experiment: FACS, CHO-K1 cSEMA4D cells; Ab 0.107 nM. How it is done:
(§1) After the cells were counted, they were diluted with PBS to 2×10⁶ cells per milliliter. After washing, 100 μL of diluted and purified leading antibodies was added to each well and the plate was incubated for 1 hour on ice. […] Cells were washed 2 times by centrifugation with FACS buffer. The cells were suspended with 200 μL of FACS buffer, FACS (FACS Verse, purchased from BD) was used to detect and analyze the results.
On the technique in general: A flow cytometer gives signals particle by particle.

Experiment [2] concerns the target T2, human SEMA4D, full length, on CHO-K1 cells (CHO-K1 hSEMA4D) (human, UniProt Q92854 22-862).
T2 construct: whole, on cells; also called human SEMA4D recombinant cells
T2 sequence (looked up): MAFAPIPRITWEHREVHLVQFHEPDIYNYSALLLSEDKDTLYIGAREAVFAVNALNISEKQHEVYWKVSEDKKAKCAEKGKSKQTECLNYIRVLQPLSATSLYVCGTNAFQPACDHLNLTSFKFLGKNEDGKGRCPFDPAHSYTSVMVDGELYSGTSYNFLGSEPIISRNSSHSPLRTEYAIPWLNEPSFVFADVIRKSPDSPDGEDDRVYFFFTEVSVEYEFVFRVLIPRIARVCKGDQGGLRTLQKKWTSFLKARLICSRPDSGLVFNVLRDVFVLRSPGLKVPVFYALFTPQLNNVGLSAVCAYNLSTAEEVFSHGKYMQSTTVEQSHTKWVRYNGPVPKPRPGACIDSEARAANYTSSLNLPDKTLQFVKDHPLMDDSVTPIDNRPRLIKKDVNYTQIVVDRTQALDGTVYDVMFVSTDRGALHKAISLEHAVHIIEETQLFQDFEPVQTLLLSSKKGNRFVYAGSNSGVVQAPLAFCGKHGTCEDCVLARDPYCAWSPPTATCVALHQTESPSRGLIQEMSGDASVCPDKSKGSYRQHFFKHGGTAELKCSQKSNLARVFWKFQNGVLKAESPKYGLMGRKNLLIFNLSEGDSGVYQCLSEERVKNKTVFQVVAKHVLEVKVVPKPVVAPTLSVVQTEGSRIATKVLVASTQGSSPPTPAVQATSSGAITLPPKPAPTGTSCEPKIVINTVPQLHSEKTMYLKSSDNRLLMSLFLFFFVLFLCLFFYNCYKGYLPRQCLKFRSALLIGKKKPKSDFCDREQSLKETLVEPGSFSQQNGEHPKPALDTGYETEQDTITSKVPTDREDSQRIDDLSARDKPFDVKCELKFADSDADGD
As to the kind of experiment: FACS, CHO-K1 hSEMA4D cells; Ab 13.3 nM. How it is done: The medium was aspirated, the cells were washed once with PBS buffer (purchased from Invitrogen), and then treated with cell dissociation fluid (TrypLE™ Express Enzyme, purchased from Life technology), and the cells were collected. After the cells counted, the cells were washed once with PBS phosphate buffer, and diluted to 3×10⁶ cells per milliliter, and added to the 96-well FACS reaction plate as 100 μL per well. 2% (w/w) fetal calf serum was added to PBS phosphate buffer as FACS buffer, with which the cells were washed once by centrifugation at 2000 rpm 4° C. 100 μL of diluted and purified leading antibodies was added to each well and the plate was incubated for 1 hour on ice. […] Cells were washed 2 times by centrifugation with FACS buffer. The cells were suspended with 200 μL of FACS buffer, and FACS (FACS Verse, purchased from BD) was used to detect and analyze the results.

For experiment [3], the target named is T1, monkey SEMA4D, full length, on CHO-K1 …. Nature of the experiment: FACS, CHO-K1 cSEMA4D cells; Ab 0.00427 nM. As to the method: as §1
Experiment [4] concerns the target T3, mouse SEMA4D, full length, on CHO-K1 cells (CHO-K1 mSEMA4D) (mouse, UniProt O09126 24-861).
T3 construct: whole, on cells; also called murine SEMA4D recombinant cells
T3 sequence (looked up): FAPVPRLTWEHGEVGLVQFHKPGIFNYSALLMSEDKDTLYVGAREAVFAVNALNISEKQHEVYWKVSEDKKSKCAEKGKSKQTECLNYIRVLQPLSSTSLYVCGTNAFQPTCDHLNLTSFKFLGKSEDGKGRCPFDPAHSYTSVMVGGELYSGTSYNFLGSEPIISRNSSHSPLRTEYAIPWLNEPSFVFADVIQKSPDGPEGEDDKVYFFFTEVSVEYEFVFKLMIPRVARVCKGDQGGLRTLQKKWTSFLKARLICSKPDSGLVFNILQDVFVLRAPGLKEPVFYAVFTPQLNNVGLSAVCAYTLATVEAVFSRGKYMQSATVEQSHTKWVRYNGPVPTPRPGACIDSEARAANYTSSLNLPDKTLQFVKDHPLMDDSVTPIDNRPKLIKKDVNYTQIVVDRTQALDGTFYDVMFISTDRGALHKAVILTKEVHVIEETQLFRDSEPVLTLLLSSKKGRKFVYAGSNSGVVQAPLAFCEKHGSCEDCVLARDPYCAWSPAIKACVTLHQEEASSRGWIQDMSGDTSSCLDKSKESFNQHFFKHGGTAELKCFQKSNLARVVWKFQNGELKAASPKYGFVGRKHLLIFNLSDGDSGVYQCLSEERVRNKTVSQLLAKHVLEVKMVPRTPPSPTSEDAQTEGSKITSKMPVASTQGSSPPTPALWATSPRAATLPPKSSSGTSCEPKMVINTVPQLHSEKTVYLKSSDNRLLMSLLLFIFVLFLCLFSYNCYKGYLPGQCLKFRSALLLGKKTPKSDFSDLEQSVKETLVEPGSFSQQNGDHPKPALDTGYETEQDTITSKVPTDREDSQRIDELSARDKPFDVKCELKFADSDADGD
As to the kind of experiment: FACS, CHO-K1 mSEMA4D cells; Ab 0.00427 nM. As to the method:
as §1

In experiment [5] the target is T3, mouse SEMA4D, full length, on CHO-K1 …. As to the kind of experiment: FACS, CHO-K1 mSEMA4D cells; Ab 0.534 nM. How it is done: as §1
Experiment [6] addresses T1, monkey SEMA4D, full length, on CHO-K1 …. As to the kind of experiment: FACS, CHO-K1 cSEMA4D cells; Ab 2.67 nM. How it is done:
as §1

Where a chain is given by its changes, count along the chain named.

B1: 37C4F7 (antibody, V domains shown)
VH: EFQLQQSGPEVVKPGASVKISCKASGYSFTDYNMNWMKQSKGKSLEWIGVINPNYGTTTYNQNFKGKATLTVDQSSSTAYMQLNSLTSEDSAVYYCARDMYYVYAYYTMDYWGQGTSVTVSS
VL: DVVMTQTPLSLPVSLGDQASISCRSSQSLVHSNGHTYLHWYLQRPGQSPTLLIYKVSNRFSGVPDRFSGSGSGTDFTLKISRVEAEDLGVYFCSQGTHVPWTFGGGTKLEIK
notes: Mouse monoclonal antibody purified from hybridoma supernatant on protein A
As for B1, the MFI was 237 in experiment [1]; 4290 in experiment [2]; 38.2 in experiment [3]; 30.5 in experiment [4]; 29.2 in experiment [5]; 1940 in experiment [6].

B2: 38H2E3 (antibody, V domains shown)
VH: B1 VH with N52S, N54D, G66D, R98K, Q114H
VL: B1 VL with F67V, W101R
notes: as for B1
With B2, the MFI in experiment [1] is 210; in experiment [2] it was 4630; in experiment [3], 35; in experiment [4] it was 29.9; in experiment [5] it was 29.5; in experiment [6], 1750.

B3: 32C8F10 (antibody, V domains shown)
VH: EVQLQQSGAELVRPGASVKLSCTASGFNIKDEYIHWVKQRPEQGLEWIGWIDPANGHTEYASRFQAKATITADTSSNTAYLQLSSLTSEDTAVYYCTTGDYDGFAYWGQGTLVTVST
VL: QIVLTQSPAIMSASPGEKVTISCSARSSVSYMYWYQQKPGSSPKPWIYRTSNLASGVPARFSGSGSGTSYSLTISSMEAEDAATYYCQHYHTYPYTFGGGTKLEIK
notes: as for B1
B3: the MFI came out at 1010 in experiment [1]; 7830 in experiment [2]; 97.6 in experiment [3]; 30.2 in experiment [4]; 29.8 in experiment [5]; 4920 in experiment [6].

B4: 31G10C5 (antibody, V domains shown)
VH: B3 VH with E32D, T58I, R63N, A105T
VL: B3 VL
notes: as for B1
As for B4, the MFI turned out to be 1310 in experiment [1]; 6180 in experiment [2]; 152 in experiment [3]; 29.8 in experiment [4]; 30.3 in experiment [5]; 4540 in experiment [6].

B5: 31C11G2 (antibody, V domains shown)
VH: B3 VH with A105V
VL: B3 VL with S22F
notes: as for B1
As to B5, the MFI in experiment [1] was 1210; in experiment [2], 6670; in experiment [3], 139; in experiment [4] it was 31.4; in experiment [5], 30.7; in experiment [6] it was 4420.

B6: 37F11F9 (antibody, V domains shown)
VH: EVQLQQSGPVLVKPGASVKMSCKASGYTFTDYYMNWVKQSHGKSLEWIGLINPYSGGSTFNQKFKAKATLTVDKSSSSAYMDLNSLTSEDSAVYYCARVGDGYYGVTHGMDYWGQGTSVTVSS
VL: DIVMTPSQKFMSTTVGDRVSITCKASQNVGTAVAWYQQKPGQSPTILIYSASNRYTGVPDRFTGSGSGTDFTLTISNMKSEDLADYFCQQYYIYPFTFAAGTKLELK
notes: as for B1
With B6, the MFI is 300 in experiment [1]; 3960 in experiment [2]; 45.4 in experiment [3]; 30.1 in experiment [4]; 30.9 in experiment [5]; 2170 in experiment [6].

B7: 42B7G2 (antibody, V domains shown)
VH: QVQLQQSGAELARPGASVKLSCKASGYTFTDYGISWVKQRTGQGLEWIGEIYLRNDNSYYNEKFKGKATLTADKSSNTAYMELRSLTSEDSAVYFCARWGDHGNNYEDAMDYWGQGTSVTVSS
VL: DIVLTQSPASLAMSLGKRATISCRASESVSIIGSNLIHWYQQKPGQPPKLLIYHASNLETGVPARFSGSGSRTDFTLTIDPVEEDDVAIYYCLQSRKVPYTFGGGTKLEIK
notes: as for B1
For the molecule B7, the MFI in experiment [1] is 793; in experiment [2], 3950; in experiment [3] it was 92.7; in experiment [4], 30.3; in experiment [5] it was 31.7; in experiment [6], 2640.

These data come from US20220073608A1 (JIANGSU HUAIYU PHARMACEUTICAL, published 2022).
